Source: patent US20030148264A1, “Phage displayed PDZ domain ligands” (GENENTECH, INC., priority 2001, published 2003)
Like-named read-outs stand apart in the source and are kept apart here. Where a SMILES comes first, the peptide text is derived from it. Where no end group is shown, it is not given here.

Legend:
[1] = target: T1, Human Scribble (KIAA0147, NP_056171.1) PDZ2 (aa 788-913) (Homo sapiens, UniProt Q14160); test: Carboxyl-terminal phage display binding selection; details: number of phage-selected clones with this sequence, siblings counted as individuals
T1 construct: Human Scribble (KIAA0147, NP_056171.1) PDZ2 (aa 788-913); GST; made in house
T1 sequence (Q14160 788-913 isoform Q14160-2): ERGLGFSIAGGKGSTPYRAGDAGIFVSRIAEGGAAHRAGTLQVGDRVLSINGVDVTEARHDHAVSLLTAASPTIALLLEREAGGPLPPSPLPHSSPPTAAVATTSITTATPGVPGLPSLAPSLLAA
Text: Phage display technology was further employed essentially as described above, with minor modifications, to select ligands of a variety of PDZ domains (including additional, independent rounds of selection for ERBIN PDZ and MAGI3 PDZ3). Briefly, peptide ligands were selected from pools of randomized peptides. […] The peptides were fused to the M13 phage major coat proteins such that the C-termini of the randomized peptides were free and available for binding. PDZ domains were utilized as their GST-fusions (referred to in this Example simply as “PDZ domains”). The particular amino acids comprising each PDZ domain target are indicated in the heading of Tables 11-29.
Peptide ligands were selected and identified for 17 (18 including ERBIN) PDZ domains. […] At the bottom of each table, the occurrence of each amino acid residue is expressed as a percentage of the total number of residues in the relevant position. Siblings (peptides with identical DNA that appear as more than one copy) were counted as individuals. The numbers for occurrence were corrected for codon usage. The relative codon usage is indicated after each amino acid in the header of the bottom section of each table. “n” refers to the number of sequences (siblings counted as individuals) on which the occurrence value is based; this number is also shown as normalized with respect to codon usage.

Magi1 PDZ3 = test: IC50 (nM) | Magi1 PDZ3 | 0.625 nM | B01-87 | Bio-GGWFLDV (SEQ ID NO 686) | 15.62 nM
Procedure: (§1) Table printed on a drawing sheet, Fig. 12
Head of the field: IC50 (nM) | Magi1 PDZ3 | 0.625 nM | B01-87 | Bio-GGWFLDV (SEQ ID NO 686) | 15.62 nM
(§2) The patent's description of the figure: FIG. 12. IC50 values indicating binding affinities of various peptides to PDZ domains
(§3) First copying reader's note: The first column (three lines per block: protein, accession, PDZ domain) is treated as one cell spanning its block; an empty ruled row above the IC50/SD head is left out; #### cells are spreadsheet overflow marks as printed; several heads and cells are cut off at the left by the print (ample, eptide No, EQ ID NO).
Where the first naming reader finds the target: head: IC50 (nM) | Magi1 PDZ3 | 0.625 nM | B01-87

Erbin PDZ = target: T2, Erbin PDZ (Homo sapiens, UniProt Q96RT1); test: IC50 (nM) | Erbin PDZ | 2 nM | PDZ501 | Bio-Ac-GGWETWV (SEQ ID NO 687) | 37 nM
T2 construct: made in house; host or cells: E. coli
Procedure: as §1, §2, §3
Where the first naming reader finds the target: head: IC50 (nM) | Erbin PDZ | 2 nM | PDZ501

hZO1 PDZ1 [2] = target: T3, hZO1 PDZ1 (Homo sapiens, UniProt Q07157); test: IC50 (nM) | hZO1 PDZ1 | 5 nM | B01-88 | Bio-GGWRWTTWL (SEQ ID NO: 684) | 36 nM
T3 construct: Human ZO1 (NM_003257) PDZ1; GST; made in house
Procedure: Table printed on a drawing sheet, FIG. 12A
Head of the field: IC50 (nM) | hZO1 PDZ1 | 5 nM | B01-88 | Bio-GGWRWTTWL (SEQ ID NO: 684) | 36 nM
as §2
First copying reader's note: Upper left part of a table split over FIG. 12A-12D; further receptor columns and further peptides are on the other sheets.
(§4) Where the first naming reader finds the target: head: IC50 (nM) | hZO1 PDZ1 | 5 nM | B01-88

hZO1 PDZ1 [3] = target: T3, hZO1 PDZ1; test: IC50 (nM) | hZO1 PDZ1 | 5 nM | B01-88 | Bio-GGWRWTTWL (SEQ ID NO 684) | 36 nM
Procedure: as §1
Head of the field: IC50 (nM) | hZO1 PDZ1 | 5 nM | B01-88 | Bio-GGWRWTTWL (SEQ ID NO 684) | 36 nM
as §2, §3, §4

[4] = target: GST-MAGI-3 PDZ 2 (aa. 584-707 of SEQ ID NO:200) (human) [GST: P08515]; test: alanine scan, competition ELISA
[5] = target: GST-MAGI-3 PDZ 2 (aa. 584-707 of SEQ ID NO:200) (human) [GST: P08515]; test: competition ELISA: peptide blocks GST-PDZ binding to immobilized peptide
MAGI 3 PDZ3 = target: T4, MAGI 3 PDZ3 (Homo sapiens, UniProt Q5TCQ9); test: Competition ELISA, peptide blocking PDZ domain binding to immobilized peptide
T4 construct: PDZ2 and PDZ3 were purified as glutathione S-transferase (GST) fusions from E coli; GST; made in house; host or cells: E. coli
Text: (§5) Many methods are known and can be used to identify the binding affinities of PDZ domain binding ligands (e.g. peptides, proteins, small mollecules, etc.); for example, binding affinities can be determined as IC50 values using competition ELISAs. The IC50 value is defined as the concentration of ligand which blocks 50% of PDZ domain binding to a ligand. For example, in solid phase assays, assay plates may be prepared by coating microwell plates (preferably treated to efficiently absorb protein) with neutravidin, avidin or streptavidin. Non-specific binding sites are then blocked through addition of a solution of bovine serum albumin (BSA) or other proteins (for example, nonfat milk) and then washed, preferably with a buffer containing a detergent, such as Tween-20. A biotinylated known PDZ-domain ligand (for example, the phage peptides or cognate protein as fusions with GST or other such molecule to facilitate purification and detection) is prepared and bound to the plate. Serial delutions of the ligand to be tested with a PDZ domain polypeptide arc prepared and contacted with the bound ligand. The plate coated with the immobilized ligandis washed before adding each binding reaction to the wells and briefly incubated. After further washing, the binding reactions are detected, often with an antibody recognizing the non-PDZ fusion partner and a labeled (such as horseradish peroxidase (HRP), alkaline phosphatase (AP), or a fluorescent tag such as fluorescein) secondary antibody recognizing the primary antibody. The plates are then developed with the appropriate substrate (depending on the label) and the signal quantified, such as using a spectrophotometric plate reader. The absorption signal may be fit to a binding curve using a least squares fit. Thus the ability of the various ligands to inhibit PDZ domain from binding a known PDZ-domain ligand can be measured.
(§6) Peptides corresponding to the selected sequences were synthesized and assayed for binding (Table 2). […] The data also confirmed that the minimal tetrapeptide selectants from the PDZ2 sort bind PDZ2 with high affinity. […] It appears that this large difference in binding affinity is attributable to the residue at P(−1), which is a Trp in the selected peptide as opposed to a Lys in PTEN/MMAC (compare HTQITWV with HTQITKV (SEQ ID NO:220), Table 2; The IC50 values are the concentrations of peptide that blocked 50% of PDZ domain binding to immobilized peptide in an ELISA).

MAGI 3 PDZ2 = target: T5, MAGI 3 PDZ2 (Homo sapiens, UniProt Q5TCQ9); test: as above; parameters: made in house; host or cells: E. coli
T5 sequence (Q5TCQ9 584-707 isoform Q5TCQ9-2): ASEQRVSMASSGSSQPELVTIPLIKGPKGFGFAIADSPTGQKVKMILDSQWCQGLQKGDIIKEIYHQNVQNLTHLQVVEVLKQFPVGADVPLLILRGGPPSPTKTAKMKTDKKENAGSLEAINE
Text: as §5
Prokaryotic: The ERBIN PDZ domain (aa. 1217-1371 of SEQ ID NO:201) or MAGI-3 PDZ 2 (aa. 584-707 of SEQ ID NO:200) were cloned into the EcoR 1/Not 1 or BamH 1/Not 1 sites of pGEX 6P-1 and pGEX 4T-3 E. coli expression vectors (Pharmacia) respectively. Expression and affinity purification of E coli expressed GST-proteins was performed as recommended by the manufacturer (Pharmacia).
as §6

[6] = target: T6, ERBIN PDZ-GST fusion protein (aa. 1217-1371 of SEQ ID NO:201) (human, UniProt P08515 1-218 = GST); test: competition ELISA: ERBIN PDZ-GST binding to immobilized biotin-WETWV
[7] = target: T6, ERBIN PDZ-GST fusion protein (aa. …); test: as above; remark: listed apart in the source
[8] = target: T6, ERBIN PDZ-GST fusion protein (aa. …); test: as above; remark: listed apart in the source
[9] = MAGI 3 PDZ3, concentration of peptide that blocked 50% of PDZ domain binding to immobilized peptide in an ELISA, read-out: IC50 (μM) PDZ3
[10] = MAGI 3 PDZ2, concentration of peptide that blocked 50% of PDZ domain binding to immobilized peptide in an ELISA, read-out: IC50 (μM) PDZ2

T2 sequence (Q96RT1 1258-1412): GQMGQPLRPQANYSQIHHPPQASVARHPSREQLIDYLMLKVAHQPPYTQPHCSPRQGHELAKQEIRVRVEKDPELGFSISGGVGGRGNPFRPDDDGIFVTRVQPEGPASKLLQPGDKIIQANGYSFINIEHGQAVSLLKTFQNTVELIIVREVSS
Sequence of GST-MAGI-3 PDZ 2 (aa. 584-707 of SEQ ID NO:200) (human) [GST: P08515] (P08515 whole entry, the tested form may be a part): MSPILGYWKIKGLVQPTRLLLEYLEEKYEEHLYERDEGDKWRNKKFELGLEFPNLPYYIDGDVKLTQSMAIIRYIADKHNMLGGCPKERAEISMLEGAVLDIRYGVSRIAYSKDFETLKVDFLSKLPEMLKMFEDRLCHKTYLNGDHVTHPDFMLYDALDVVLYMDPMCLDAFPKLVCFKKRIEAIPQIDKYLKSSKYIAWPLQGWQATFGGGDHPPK
T6 sequence (P08515 whole entry, the tested form may be a part): as above
T3 sequence (Q07157 23-110): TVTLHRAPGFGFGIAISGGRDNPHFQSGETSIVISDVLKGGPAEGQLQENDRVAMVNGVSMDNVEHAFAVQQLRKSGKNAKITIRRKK
T4 sequence (Q5TCQ9 726-808 limits assumed): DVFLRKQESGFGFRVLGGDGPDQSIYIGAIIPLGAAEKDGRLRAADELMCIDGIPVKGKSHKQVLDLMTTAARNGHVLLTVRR

Molecule: LTVRETWV [phage-selected peptide, Scribble PDZ2]
- occurence [1]: 4

Molecule: EQ ID NO 649 N^AC-YRWTTWL (Ac-YRWTTWL) [10 | 01-28]
- IC50 (Magi1 PDZ3): 32600 nM

Molecule: AWFDTDL [2 | 01-61, SEQ ID NO 641 AWFDTDL]
- IC50 (Magi1 PDZ3): 18200 nM
- IC50 (Erbin PDZ): 25400 nM

Molecule: Ac-YRWTTWL [10 | 01-28, SEQ ID NO: 649: N^AC-YRWTTWL]
- IC50 (hZO1 PDZ1 [2]): 31 nM

Molecule: Ac-WFLDA [42 | 01-22, SEQ ID NO 681 NAC-WFLDA]
- IC50 (Magi1 PDZ3): 410 ± 72 nM
- IC50 (hZO1 PDZ1 [3]): 21800 nM

Molecule: SEQ ID NO 671 NAC-WFLDI [32 | 01-14]
- IC50 (Magi1 PDZ3): 408 ± 50 nM

Molecule: RSRYRFTDV [phage-selected peptide, Scribble PDZ2]
- occurence [1]: 6

Molecule: AWFETWV [phage-selected peptide, Scribble PDZ2]
- occurence [1]: 2

Molecule: CAWV (peptide)
- fold reduction in binding against CSWV [4]: 5 fold
- IC50 [5]: 7.3 µM

Molecule: CSAV (peptide)
- fold reduction in binding against CSWV [4]: > 100 fold
- IC50 [5]: 200 µM

Molecule: TRWWFDI-NH2 [TRWWFDI-NH2]
- IC50 (MAGI 3 PDZ3; [9]): 300 µM

Molecule: DGICSWV [DGICSWV]
- IC50 (MAGI 3 PDZ3): > 1000 µM
- IC50 (MAGI 3 PDZ2): 0.3 µM

Molecule: EQ ID NO 648 N^AC-WRWTTWL (Ac-WRWTTWL) [9 | 01-103]
- IC50 (Magi1 PDZ3): 180 ± 59 nM

Molecule: CC[C@H](C)[C@H](N)C(=O)N[C@H](C(=O)N[C@@H](CCCCN)C(=O)N[C@H](C(=O)O)C(C)C)[C@@H](C)O [ITKV, reference compound] (H-ITKV-OH; N-terminus and C-terminus assumed)
- IC50 (MAGI 3 PDZ2; MAGI 3 PDZ2 domain, read-out: IC50): 200 µM

Molecule: Ac-WRWTTWV [13 | 01-31, EQ ID NO 652 N^AC-WRWTTWV]
- IC50 (Magi1 PDZ3): 32600 nM
- IC50 (Erbin PDZ): 789 ± 62 nM

Molecule: Ac-FETDL [1 | 01-104, SEQ ID NO 640 N^AC-FETDL]
- IC50 (Magi1 PDZ3): 91500 nM
- IC50 (Erbin PDZ): 101000 nM

Molecule: RKSRTFETWV [phage-selected peptide, Scribble PDZ2]
- occurence [1]: 1

Molecule: Ac-FETWL [3 | 01-08, SEQ ID NO: 642: N^AC-FETWL]
- IC50 (hZO1 PDZ1 [2]): 10400 nM

Molecule: ASWV (peptide)
- fold reduction in binding against CSWV [4]: 25 fold
- IC50 [5]: 35 µM

Molecule: STGKFFDTWV [phage-selected peptide, Scribble PDZ2]
- occurence [1]: 1

Molecule: Ac-WRWTTWL [9 | 01-103, SEQ ID NO: 648: N^AC-WRWTTWL]
- IC50 (hZO1 PDZ1 [2]): 27 nM

Molecule: HRVRETWV [phage-selected peptide, Scribble PDZ2]
- occurence [1]: 21

Molecule: CSWA (peptide)
- fold reduction in binding against CSWV [4]: > 100 fold
- IC50 [5]: 400 µM

Molecule: TRWWFDI-OH [TRWWFDI]
- IC50 (MAGI 3 PDZ3; [9]): 0.9 µM
- IC50 (MAGI 3 PDZ2; [10]): > 1000 µM

Molecule: HTQITWV [HTQITWV]
- IC50 (MAGI 3 PDZ2; [10]): 0.3 µM

Molecule: HTQITKV [HTQITKV, reference compound]
- IC50 (MAGI 3 PDZ3; [9]): > 1000 µM
- IC50 (MAGI 3 PDZ2; [10]): 200 µM

Molecule: Ac-WFLWI [34 | 01-12, SEQ ID NO 673 NAC-WFLWI]
- IC50 (Magi1 PDZ3): 34700 nM
- IC50 (Erbin PDZ): > 400000 nM

Molecule: ASKVTWV [ASKVTWV]
- IC50 (MAGI 3 PDZ3): > 1000 µM
- IC50 (MAGI 3 PDZ2): 0.8 µM

Molecule: GCGCSWV
- IC50 (MAGI 3 PDZ2; [10]): 2 µM

Molecule: ESVRGFDTWV [phage-selected peptide, Scribble PDZ2]
- occurence [1]: 1

Molecule: Ac-WETYV [Ac-WETYV]
- IC50 [6]: 42.5 µM
- fold less potent than Ac-WETWV [6]: 86.7 fold

Molecule: Ac-WDTWV [Ac-WDTWV]
- IC50 [7]: 1.7 µM
- fold less potent than Ac-WETWV [7]: 3.4 fold

Molecule: Ac-WETFV [Ac-WETFV]
- IC50 [6]: 14.5 µM
- fold less potent than Ac-WETWV [6]: 295 fold

Molecule: Ac-WESWV [Ac-WESWV]
- IC50 [7]: 2.5 µM
- fold less potent than Ac-WETWV [7]: 5.2 fold

Molecule: Ac-WEVWV [Ac-WEVWV]
- IC50 [7]: 4.8 µM
- fold less potent than Ac-WETWV [7]: 9.8 fold

Molecule: Ac-WETAV [Ac-WETAV]
- IC50 [8]: 34 µM
- fold less potent than Ac-WETWV [8]: 69.3 fold
- IC50 [6]: 34 µM
- fold less potent than Ac-WETWV [6]: 69.3 fold
